Results reported in CN109265548A (UNIV SOUTHEAST, dated 2019).

Experiments:
PD-L2(人) = molecular target: T1, PD-L2(人) (human, UniProt Q9BQ51 20-220, limits assumed); test: ELISA, antigen coated 0.5 μg per well, detection with rabbit anti-HA and HRP goat anti-rabbit
T1 construct: also called 人PD-L2
T1 sequence (looked up): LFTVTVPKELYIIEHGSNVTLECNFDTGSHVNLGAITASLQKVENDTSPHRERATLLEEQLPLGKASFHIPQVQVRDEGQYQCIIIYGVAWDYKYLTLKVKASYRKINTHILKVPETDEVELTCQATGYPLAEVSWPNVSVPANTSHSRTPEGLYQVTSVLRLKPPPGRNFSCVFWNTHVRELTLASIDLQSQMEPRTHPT

PD-L1(鼠) = molecular target: T2, PD-L1(鼠) (鼠 (murine), UniProt Q9EP73 19-239, limits assumed); test: as above
T2 construct: also called 鼠源的PD-L1
T2 sequence (Q9EP73 19-239 limits assumed): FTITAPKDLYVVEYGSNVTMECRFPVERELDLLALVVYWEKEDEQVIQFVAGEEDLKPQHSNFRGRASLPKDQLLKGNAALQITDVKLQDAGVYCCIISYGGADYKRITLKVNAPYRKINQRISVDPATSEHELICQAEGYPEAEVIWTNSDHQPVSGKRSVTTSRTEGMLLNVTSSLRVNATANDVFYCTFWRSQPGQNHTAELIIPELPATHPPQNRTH

B1: 抗PD-L1Nb15 (VHH)
VHH: QVQLVESGGGSVQAGGALRLSCAASGYTSTSNCMGWFRQAPGKEREGVAAIYTGGGSTYYADSVKGRFTISQDNAKNTVYLQMNSLKPEDTAMYYCAAGDLDPAEYSDYDPTVFNYWGQGTLVTVSS
notes: Expressed from pET32a in E. coli BL21(DE3), purified on Ni-IDA and detected in ELISA with an anti-HA antibody; the vector-derived tags are not described; also called antiPD-L1Nb15; 抗PD-L1-VHH15
PD-L2(人)
  binding result: no binding (tested: 10μg/mL)
PD-L1(鼠)
  binding result: no binding (tested: 10μg/mL)
